Measurements published in publication PMC11883000 (2025).
Where two headings read alike, the source gives them in different places. Ends that are not written are not given here. Me2 = dimethylation (dimethyl-lysine); Me3 = trimethyl on lysine side chain

T1: ASH1L plant homeodomain (PHD) finger, wild type (aa 2579-2629) (human, UniProt Q9NR48 2579-2629)
T1 chain: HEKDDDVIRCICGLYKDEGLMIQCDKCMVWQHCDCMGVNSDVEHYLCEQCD

T2: ASH1L PHD finger-BAH domain (human, UniProt Q9NR48 2579-2834)
T2 chain: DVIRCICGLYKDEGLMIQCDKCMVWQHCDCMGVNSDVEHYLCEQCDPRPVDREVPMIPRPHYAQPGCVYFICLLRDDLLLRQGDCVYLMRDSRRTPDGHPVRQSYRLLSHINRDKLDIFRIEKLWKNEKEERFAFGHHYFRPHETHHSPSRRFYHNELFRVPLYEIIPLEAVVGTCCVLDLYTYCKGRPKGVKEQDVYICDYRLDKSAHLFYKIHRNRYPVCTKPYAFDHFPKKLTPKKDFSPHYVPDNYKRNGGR

T3: ASH1L PHD finger Y2693K (human, UniProt Q9NR48 2579-2629)
T3 chain: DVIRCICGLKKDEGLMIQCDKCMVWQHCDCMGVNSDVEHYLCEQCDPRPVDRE

B1: histone H3K4me2 peptide (aa 1-12 of H3) (peptide)
peptide: ARTK(Me2)QTARKSTG
B2: histone H3K4me3 peptide (aa 1-12 of H3) (peptide)
peptide: ARTK(Me3)QTARKSTG

Legend:
[1] = target: T1, ASH1L plant homeodomain (PHD) finger, …
[2] = target: T2, ASH1L PHD finger-BAH domain
[3] = target: T1, ASH1L plant homeodomain (PHD) finger, …; assay: MST
ASH1L PHD finger Q2601K = ASH1L PHD finger Q2601K (human, UniProt Q9NR48 2579-2629, Q2601K)
ASH1L PHD finger D2603A = ASH1L PHD finger D2603A (human, UniProt Q9NR48 2579-2629, D2603A)
ASH1L PHD finger D2595A = ASH1L PHD finger D2595A (human, UniProt Q9NR48 2579-2629, Substitution of D2595 with alanine)
ASH1L PHD finger S2618A = ASH1L PHD finger S2618A (human, UniProt Q9NR48 2579-2629, S2618A)
ASH1L PHD finger Y2693K = target: T3, ASH1L PHD finger Y2693K
ASH1L PHD finger D2584A = ASH1L PHD finger D2584A (human, UniProt Q9NR48 2579-2629, Substitution of D2584 with alanine)

| Binder | Kd [1] [nM] | Kd [2] [nM] | Kd [3] [nM] | Kd (ASH1L PHD finger Q2601K) [nM] | Kd (ASH1L PHD finger D2603A) [nM] | Kd (ASH1L PHD finger D2595A) [µM] | Kd (ASH1L PHD finger S2618A) [µM] | Kd (ASH1L PHD finger Y2693K) [nM] | Kd (ASH1L PHD finger D2584A) [µM] |
| --- | --- | --- | --- | --- | --- | --- | --- | --- | --- |
| B1 | 1000 | – | – | – | – | – | – | – | – |
| B2 | 1600 | 1000 | 1100 | 1000 | 2000 | 6.7 | 5.9 | 1800 | 4.6 |
